# Experimental data: the DeepSol protein solubility set
# Assay: soluble on expression in E. coli; label from the status in PepcDB or PDB records
row,Sequence,soluble on expression in E. coli
1,GPGSMMTTCPQTRCYNCGTFGHSSQICHSKPHCFHCSHSGHRSSECPMRSKGRVCYQCNEPGHEAANCPQGQLCRMCHRPGHFVAHCPEVVCNLCHLKGHTAGVCDNVHCDNCGRNHETVHCHQPYLAPVTHDRVSEERSASLPSEHDPSSADQSNNSATPCDSDDGGSNRGGEPRPRTGVSCAPVVPPYIPLDGPKRDGRVAIVVDGSYFERCVAVRRNRSDPTYYRHITDALLYTIDYIGDIFQCEPFAYWFDTDTAAFREFVETSMPLAHRENAFREASMRKRYLTDEMNSGRSLPNVVAKLVGGMKRQRGFTEDGPGHVWVQTGVDVATATCVIELFQDRRQFRQVVLLCGDADVYPAVQYCNTLRRSSHQHADSNPVRVCGTSDSMSKIYGQQQDLTDFLPRLLLDCPLHTEGGRTIEFPTSKVFMSVR,not soluble
2,MGSDKIHHHHHHMDVFSDRVLLTEESPIRKLVPFAEMAKKRGVRIHHLNIGQPDLKTPEVFFERIYENKPEVVYYSHSAGIWELREAFASYYKRRQRVDVKPENVLVTNGGSEAILFSFAVIANPGDEILVLEPFYANYNAFAKIAGVKLIPVTRRMEEGFAIPQNLESFINERTKGIVLSNPCNPTGVVYGKDEMRYLVEIAERHGLFLIVDEVYSEIVFRGEFASALSIESDKVVVIDSVSKKFSACGARVGCLITRNEELISHAMKLAQGRLAPPLLEQIGSVGLLNLDDSFFDFVRETYRERVETVLKKLEEHGLKRFTKPSGAFYITAELPVEDAEEFARWMLTDFNMDGETTMVAPLRGFYLTPGLGKKEIRIACVLEKDLLSRAIDVLMEGLKMFCSSRISC,soluble
3,AIADYSNTYGAYGGGGFLPESPARTGGNASTRFGVGSGSSLRDQRRSLLPVRVADLVHAVHDPVTNTFVLRDENEHQSITISEGSIVKVVAYVEELREQPLDLLWLLDDRSGEMIWARMASTSSSSLAALEQSGILVRVFGQLLEVDGRRVLNVRAIRKADGEVELRYHENLCQLSKLQLIRGYPTAGNALAGASSSPASPKAGPSKAVHRSSLGSGAPKEMAQQAPGLEIPAAFPPEHFKVLKCIREETARNRDAMLTDIAQRIALSTTKVRGICDALQNEGHIYCTLDDDTFRASSS,soluble
4,MSLKTTFLEFEQPIAELEAKIEELRFVQDDSAVDISEEISRLAAKSQQLTKDLYATLSPWQVAQIARHPQRPYTLDYVREIFTDFHELHGDRTFADDLSIVGGLARFNGQPCMVIGHQKGRDTKERALRNFGMSKPEGYRKAKRLMELADKFGLPIFTFVDTPGAFPGIEAEERGQSEAIGHNLFVMAGLKVPLIATIIGEGGSGGALAIAVGDSVIMLQFATYAVISPEGCASILWKTAEKAPEAAEALGLTAHRLKALGLIDKIVNEPLGGAHRDPKAMATMLKRALAESLRQFQGMKTSELQARRHERLMAYGKFKETGSNEGHHHHHH,not soluble
5,MSLQEVITLKVIGPWSGAELDAFMEVLKAFEKQHPNIKIEYKTYRAEDLSTILPLQFESHDTPADVIFMWGWFIAEMGKKGHLMELNNIINPEEYVPGILDSVTVDGKIYGAPFTAAAKPGFWYRKSFFEKHNLKPPKTWDDFVALLEEIKKIPGIKAPIVSGDSVGWPLSDVTEHFILTFGGKDLQLKLIKGEVKWEDPQVRKIFEEKLVPLLKAGYFSDPIEWTSAVDLWWKGEYALYFMGTWITGMVDDPNDLGLIPLPGVKAMVIAPDYLMVPKYTSHPKEALELAKFLATEGQRIHVGTKSGKLATWKKVSIDDYWAPMRDVAKIVANVESAPDLDDSVGGEWQKVFWDQLKLLWVQPDRLDEVLKTLDEKFPKEGHHHHHH,soluble
6,MATLLRSLALFKRNKDKPPITSGSGGAIRGIKHIIIVPIPGDSSITTRSRLLDRLVRLIGNPDVSGPKLTGALIGILSLFVESPGQLIQRITDDPDVSIRLLEVVQSDQSQSGLTFASRGTNMEDEADQYFSHDDPISSDQSRFGWFENKEISDIEVQDPEGFNMILGTILAQIWVLLAKAVTAPDTAADSELRRWIKYTQQRRVVGEFRLERKWLDVVRNRIAEDLSLRRFMVALILDIKRTPGNKPRIAEMICDIDTYIVEAGLASFILTIKFGIETMYPALGLHEFAGELSTLESLMNLYQQMGETAPYMVILENSIQNKFSAGSYPLLWSYAMGVGVELENSMGGLNFGRSYFDPAYFRLGQEMVRRSAGKVSSTLASELGITAEDARLVSEIAMHTTEDKISRAVGPRQAQVSFLHGDQSENELPRLGGKEDRRVKQSRGEARESYRETGPSRASDARAAHLPTGTPLDIDTASESSQDPQDSRRSADALLRLQAMAGISEEQGSDTDTPIVYNDRNLLD,not soluble
7,MSSTRTASGRTSGRNGTWRNWGGNVSARPAREVTPASVDELADAVRRAAEDGQRVKAVGTGHSFTSIAATDGVLIRPQLLTGIRSIDRDAMTVTVEAGTPLKRLNMALAREGLSLTNMGDIMEQTVSGATSTGTHGTGRDSASIAAQIRGLELVTADGSVLTCSADENPEVFAAARIGLGALGVVTAITFAVEPVFLLTAREEPMPFDRVLADFDALWSENEHFEFYWFPHTNSTNTKRNNRSAGPERPVGRFQGWLDDEFLSNGLFQAVNWVGRAAPATIPSIARISSRALSARTYTDTPYKVFTSPRRVRFVEMEYAVPREAVVEVLRELRTMVDRSRLRISFPVEVRTAPADDITLSTASARDSAYIAVHMFRGTPYQAYFTAAERIFTAHEGRPHWGKVHTRDAGYFSRVYPRFGEFTALRDRLDPDRLFQNDYLRRVLGPLEHHHHHH,soluble
8,MGSDKIHHHHHHMKIAIVGGPTAVGKTDIMIEVCEEIGAEIISMDSRQIYRYMDIGTAKPTPEQRKRVLHHMIDIIDPDEYYNAFMYRKDSLRAMEDVLRRGKIPVYVGGTGLYADALVRGIFEGVPADENIRKELRELERREPGILRKMLEELDPEAATRIHPNDLKRTIRALEVYMKTGRRISELQKEAKGDDRFFIIVLTRERYELYERINKRVDKMIEMGLVDEVKRLLGMGYSKDLNSMKTIGYKEVIDYLEGKYDFDKMVHLIKRNTRHFARRQIIWFKRYKEAVWYNLTFEDVGEVKEKLKKLIVENFSV,not soluble
9,MFKKLFGLGSKTNEETIVAPLTGAVKNIEEVPDPVFAGRMMGDGVAIDPTEGVVVSPVDGEIVQLFHTKHAIGIKAKNGTEILIHVGLETVKMEGEGFEAHVSEGQAVKAGDKLISFDLELIREKAKSTITPIVITNTDAAESIKTTVGVTATKGSTEVMKVTMK,not soluble
10,MSGGKLPEGWATSTINEMCNLNPKLKLDDDLDVGFMPMAGVPTTYLGKCNFETKKWSEVKKGFTQFQNDDVIFAKITPCFENGKAVVIKEFPNGYGAGSTEYYVLRSINGLINPHWLFALVKTKDFLTNGALNMSGSVGHKRVTKEFLENYGVPVPPLAEQKVIAEKLDTLLAQVDSTKARLEQIPQILKRFRQSVIVAAVNGQLTKELHKKNKFKLTELNISIPSLWKISEIGQFADVKGGKRLPKGESLIAENTGFPYIRAGQLKNGTVLPEGQLYLEEYIQKSISRYTVSSGDLYITIVGACIGDAGIIPDVYNNANLTENAAKICNLNENIFNRFLSLWLRSSYLQDIINSEIKSGAQGKLALARIKSLPLILPPLQEQHEIVRRVEQLFAYADTIEKQVNNALTRVNSLTQSILAKAFRGELTAQWRAENPELISGENSAAALLEKIKAERAASGGKKTSRKKA,not soluble
11,MGHHHHHHSHMHGSPVEVKIQSRSSPPTMPPLPPINPGGPRPVSFTPTALSNGINHSPPTLNGAPSPPQRFSNGPASSTSSALTNQQLPATCGARQLSKLKRFLTTLQQFGNDISPEIGEKVRTLVLALVNSTVTIEEFHCKLQEATNFPLRPFVIPFLKANLPLLQRELLHCARAAKQTPSQYLAQHEHLLLNTSIASPADSSELLMEVHGNGKRPSPESCIIHLKSMGVASRHEYFSGTLQMPAHPVRNSTLENLWVDCSRSLRSTVLPFP,not soluble
12,LANKQIESRIIQFDVEFPSDEVAKQLSIEKTVPVYHIIRLRKVEGEPYVIEETYMPSNVISELNEDVLHGSVYRHITETLKLTIAGSHRKIRADKSSALDREYLECAPDDPVLEVEQVAFLNTGEPFEYSFARHRYDKFVFSSVHIRK,not soluble
13,MAGGLFKLMKDKSVDHSHLHKDHSIHHPTPPRSFFSSSSLAVHPNVETAQSSSEEDLRMPNIKVFSGSSHPDLSTRICERLQLEVSKASLKKFSNKETNVEIGESVRGEDVYIIQSAAGEINDNLMELLIMINACKIASSCRVAAVIPAFPYARQDKKDKSRAPISAKLVANMLSVAGADHIITMDLHASQIQGFFDIPVDNLYAEPAILKYIKESIPNWQTSVIVSPDAGGAKRVTSIADRLNVDFALIHKESKRANEVEKMTLVGSVEGKVAILVDDMADTCGTICMAADKLVEAGADKVYAFCVHGIFSGPALTRLNASKFEAVVVTNTIPQDENMKKCSKIQCIDISMILAEAIRRTHNGESVSYLFSHVPIC,not soluble
14,GMINQERLVNEFMELVQVDSETKFEAEICKVLTKKFTDLGVEVFEDDTMAVTGHGAGNLICTLPATKDGVDTIYFTSHMDTVVPGNGIKPSIKDGYIVSDGTTILGADDKAGLASMFEAIRVLKEKNIPHGTIEFIITVGEESGLVGAKALDRERITAKYGYALDSDGKVGEIVVAAPTQAKVNAIIRGKTAHAGVAPEKGVSAITIAAKAIAKMPLGRIDSETTANIGRFEGGTQTNIVCDHVQIFAEARSLINEKMEAQVAKMKEAFETTAKEMGGHADVEVNVMYPGFKFADGDHVVEVAKRAAEKIGRTPSLHQSGGGSDANVIAGHGIPTVNLAVGYEEIHTTNEKIPVEELAKTAELVVAIIEEVAK,soluble
15,MYDAYTPCEVALRLPVEVTCLAFQESNQTLLAGGRAGHLYAYTISANRRGFELTNICKSFHKKAVMELKVCQREDLLLCVSDGQLMAHKLSDPEYKVETLIHKVKPVQTFARFSPKTSGDLYVIVSSRKKLYLFKWGEKDGHKEFIEVALDYNPVFLDTPTSIRCVGEMVFFSVRNEYFSMTMQKDKTTTSPSEGSTPEGWNGFVTRLLNFNCQPGIVPMIDRRRVAFVRNEIVVTTDIWGQRPANVLSDEYKFSEVPMQIVYDSPYLVGMLSKGRVEVRSIFDGQLVQTMSLPKAMTLCSGARGQVFVAALSDIWILDTSQNLRKNVSHLIQERHFELAIQLAENSNLFAEEQKLEIKKKAALNLFNQKKFDESFALFGEIKTDISEVLSIIRMFPELLPDGFQSMTGVVSDMPANDRMRALLALGSYLSEIRTEHAKHIELYNRLYSSGAAKKTDEDEKAKLLLTLRVVDTTLLKCYIKTKPMLVDSLIRLQSNACTFEDAKKILESEGRLRSLFILYETRKKHEMALDLFIDQSSRPDADPFFDDAIQQIVEYLQSLGNSNLPLILKYAKWVLAKNLEAGVQIFTSDETEMARNLNRKAVVEFLKSECPDALIPYLEHVIFKWEEPSSYFHETLLEFYVARVNTLFKDYVHAFPDDENITRAGDEDGELGLYRKRLLKFLEVSHSYSPQTVLLQLAPHAFYEERALILGRLKQHEQALAIYVNTLKNVPAAEEYCRLYYNAHDETNSQVYLMLFRTLVHPNQQQLHSIPYHADSTPFGSYRDDVSEASTLVNSTSSYQPDVNTAIKILAKHADKIDTVGALNMLPATTPLRVVFSAINAVIQTTGRQASTRKMEKSVSQCAMSKKLERKNKAQSTKIIVNFSSECVVCEKKIAVSAFVRYPDGRLAHLYCHNDSQGGNRN,not soluble
16,GAASPGPSRPGLVPVSIIGAEDEDFENELETNSEEQNSQFQSLEQVKRRPAHLMALLQHVALQFEPGPLLCCLHADMLGSLGPKEAKKAFLDFYHSFLEKTAVLRVPVPPNVAFELDRTRADLISEDVQRRFVQEVVQSQQVAVGRQLEDFRSKRLMGMTPWEQELAQLEAWVGRDRASYEARERHVAERLLMHLEEMQHTISTDEEKSAAVVNAIGLYMRHLGVRTKSGDKK,soluble
